Entries after “also recorded” stand apart in the source; their conditions may differ.

The record followed here is US10662230B2, “Cyclic RGD cell-binding motif and uses thereof” (Spiber Technologies AB, priority 2015, dated 2020).

Data set [1] concerns Human mesenchymal stem cells (hMSC). Nature of the data set: Early attachment assay, mesenchymal stem cells on silk films. The class given is cell-based. To be noted: MSC, 1 h adhesion to film. The method, then:
Human mesenchymal stem cells (hMSC, Gibco) from bone marrow were grown in culture flasks coated with CELLstart (Gibco) in complete StemPro MSC serum free medium CTS (Gibco) containing […] fibroblast growth factor […] (Gibco) and 2 mM Glutamax (Gibco).
Cells were harvested at passage 3-8, seeded at 20 000/cm^2 and allowed to adhere to the films or controls for 1 h in a cell incubator before gentle washing twice with pre-warmed phosphate buffered saline (PBS) followed by 10 min fixation with 96% ethanol. After three washings in water, cells were stained for 30 min with 0.1% Crystal Violet in H2O. Plates were dried after extensive washing in water.
Attachment and morphology of cells bound to the films obtained in Example 3 were documented by taking micrographs at 2× and 10× magnification in an inverted bright field microscope. The color was then dissolved in 40 μL 20% acetic acid for 10 min, and 35 μL of the solution was transferred to a 384-well plate for optical density measurement at 595 nm (TECAN Infinite M200). Wells with cells fixed without pre-washing was used as positive control. Wells with no cells were used as blank. Experiments were run in hexaplicates and repeated three times. […]

In data set [2] the test system is Normal human epidermal keratinocytes (KC). Nature of the data set: Cell spreading by F-actin staining, keratinocytes. The class given is cell-based. To be noted: 3 h adhesion. As for the experimental part: Cells were harvested at passage 3-8, seeded at 3500/cm^2 and allowed to adhere onto films for 20 min, 1 or 3 hours in chamber slides. After gentle washing, cells were fixed with 4% paraformaldehyde, permeabilized with 0.1% Triton X-100 in PBS, and blocked with 1% bovine serum albumin (BSA, AppliChem) in PBS. Secondary antibody was AlexaFlour488 goat anti mouse IgG (H+L), cross adsorbed (Invitrogen), used at 1:500. Phalloidin-AlexaFluor594 (Life Technologies) were used at 1:40 to detect filamentous actin. DAPI was used for nuclear staining. Slides were mounted in Fluorescence mounting medium (Dako, Copenhagen). The stained cells were analyzed using an inverted microscope (Nikon Eclipse Ti) at 4× and 10× magnification. Excitation at 563/45 nm and detection at 625/50 nm was used for red fluorescence, whereas excitation with 387/11 nm and detection at 447/60 nm was used to monitor blue fluorescence. By staining for F-actin, cell spreading and formation of stress fibers in KC after 3 h adhesion were investigated (FIG. 6).

Data set [3] has the same test system. Nature of the data set: Formation of focal adhesions (F-actin/vinculin staining), keratinocytes. It is filed as cell-based. As for the experimental part: Cells were harvested at passage 3-8, seeded at 3500/cm^2 and allowed to adhere onto films for 20 min, 1 or 3 hours in chamber slides. After gentle washing, cells were fixed with 4% paraformaldehyde, permeabilized with 0.1% Triton X-100 in PBS, and blocked with 1% bovine serum albumin (BSA, AppliChem) in PBS.
Primary antibody were used at the following concentrations in 1% BSA: mouse anti human vinculin (Sigma V9131) at 9.5 μg/ml, mouse-anti human beta1-integrin (activated conformation, clone HUTS-4) at 3.3 μg/mL, or mouse-anti human alpha5-integrin (ligand bound conformation, clone SNAKA-51) at 2.5 μg/mL, both Millipore.
Secondary antibody was AlexaFlour488 goat anti mouse IgG (H+L), cross adsorbed (Invitrogen), used at 1:500. Phalloidin-AlexaFluor594 (Life Technologies) were used at 1:40 to detect filamentous actin. DAPI was used for nuclear staining. Slides were mounted in Fluorescence mounting medium (Dako, Copenhagen).
For microscopic analysis of cell adhesion (formation of focal adhesions and stress fibers), a confocal microscope was used (Carl Zeiss LSM 710) at 10× and 63× magnification.
Quality of focal adhesions were graded from 1-4 regarding presence of small and dim focal adhesion (=1p), small and distinct focal adhesions (=2p), abundant focal adhesions (=3p) and large and bright focal adhesions (=4p), and multiplied with the portion of positive cells expressing this specific type of focal adhesions (0-4, where 0≈none of, 1≈one fourth of, 2≈half of, 3≈three fourths of, and 4≈all of the focal adhesion-positive cells.)
Formation of focal adhesions within the cells was analyzed after 3 h by staining for F-actin in combination with vinculin, which is one of the major components of the focal adhesion complex. Co-staining of F-actin and vinculin is thus a sign of integrin-involved, well established binding of cells to the underlying substrate. Focal adhesions appear as yellow-greenish elongations of the F-actin filaments, often situated close to the cell membrane.
The results from the analysis of formation and characterization of focal adhesions in KC after adherence for 3 h onto films of WT-silk (SEQ ID NO: 2) or silk functionalized with FNCC (SEQ ID NO: 13), FNVS (SEQ ID NO: 15), FNSS (SEQ ID NO: 14) or RGD (SEQ ID NO: 16) is presented in FIG. 7. Slides were scanned with a confocal microscope at 10× for overview (FIG. 7a) and at 63× for details (FIG. 7b). Two types of grading of the focal adhesions in the cells were performed.

Data set [4] is described as follows: Fabrication of cell culture matrices (fiber, film, foam, free-standing film). It is filed as physicochemical. As for the experimental part:
Briefly, petri dishes were coated at room temperature with recombinant spider silk solution at a concentration of 0.3 mg/ml to generate films. Foams were made by rapid pipetting of the silk solution, and fibers were formed by gentle wagging in 15 ml tube followed by cutting into smaller pieces.
Free-standing films were prepared by applying of a droplet of protein solution (3 mg/ml) onto a ˜3 mm wide frame of metal wire hanging hooked up in a well of a 96-well plate and allowed to dry over night at 25° C. and 30% rh under sterile conditions.
It was observed that a spider silk protein functionalized with a disulfide-looped RGD motif self-assembles into stable matrices. As shown by the micrographs in FIG. 2a, the FNCC-4RepCT (SEQ ID NO: 13) protein could be presented as matrices in the format of fiber (upper), film (middle) and free standing film (lower). Scale bars in FIG. 2a indicate 500 μm (upper & middle) and 1000 μm (lower). […] The smooth film formats (casted and free-standing) were used in the subsequent cell adhesion experiments to rule out the effects of matrix morphology.

B1: FNCC-silk: recombinant spider silk protein 4RepCT with N-terminal cysteine-looped RGD motif CTGRGDSPAC (SEQ ID NO: 10) (protein)
chain: GPNSCTGRGDSPACGSASGQGGYGGLGQGGYGQGAGSSAAAAAAAAAAAAGGQGGQGQGGYGQGSGGSAAAAAAAAAAAAAAAGRGQGGYGQGSGGNAAAAAAAAAAAAAAAGQGGQGGYGRQSQGAGSAAAAAAAAAAAAAAGSGQGGYGGQGQGGYGQSSASASAAASAASTVANSVSRLSSPSAVSRVSSAVSSLVSNGQVNMAALPNIISNISSSVSASAPGASGCEVIVQALLEVITALVQIVSSSSVGYINPSAVNQITNVVANAMAQVMG
modifications: cyclic disulfide loop; Fusion protein; DISULFID (5)..(14)
Turning to B1, the “attachment seen in micrographs” value in data set [1] (crystal violet staining) is “clear improvement of attachment is seen on the FNCC films compared to both RGD and WT”. For the same molecule, in data set [1] (seeding 20 000/cm2, serum-free), the “OD of crystal violet dissolved from adhered cells (number of bound cells)” value is given as “significantly more cells had bound to the FNCC-silk after 1 h compared to WT silk”. Besides, in data set [2], the “cell morphology (F-actin)” value is “most cells had a nice spread-out morphology with distinct actin filaments”. Besides, in data set [2] (seeding 3 500/cm^2), the “spreading of KC (total cell area in 4× micrographs)” value is recorded as “significantly increased compared to FNSS-silk”. For the same molecule, in data set [2] (seeding 3 500/cm^2, listed as FNCC), the “spreading of KC (total cell area in 4× micrographs)” value was “significantly increased spreading of KC compared to RGD-film (p<0.05) and WT-film (p<0.001)”. The “time after seeding at which prominent focal adhesions appeared” value in data set [3] was found to be 20 min. For the same molecule, in data set [3] (3 h adherence, 10× magnification), the “percentage of cells exhibiting focal adhesions” value was “significant increase in percentage of cells expressing focal adhesions on FNCC-silk, compared to RGD and WT”. In data set [3] (3 h adherence, 63× magnification), the “quality (grading) of focal adhesions” value was “tendency of more prominent focal adhesions in cells attached to FNCC-silk compared to the other silk types; also recorded: almost only prominent focal adhesions”. Also, in data set [4], the “formation of free-standing films” value is “possible to form free-standing films”; the “stability and integrity of fibers, film and foam” value was “higher stability and integrity than noted for linear RGD silk proteins (RGD-4RepCT, SEQ ID NO: 16) and WT silk proteins”.
